Source: the supplement of paper PMC9112550, “Optimization of the antimicrobial peptide Bac7 by deep mutational scanning” (BMC Biology, 2022)

Each sequence was assayed on Escherichia coli TOP10 (assay: shrunken log2 fold change of peptide-encoding DNA abundance (4.5 h post-induction vs induction); higher = less antimicrobial activity (less host growth inhibition)). Details: time post-induction: 4.5 h; library: site-saturation at positions 5, 18, 19, 20.
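Further: peptides expressed intracellularly from a pBAD plasmid library in pooled LB shake-flask culture, induced with 0.3% L-arabinose, DNA abundance read by NGS, three biological replicates, DESeq2 with apeglm shrinkage.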

Sequence | shrunken log2 fold change
RRIRTRPPRLPRPRPRPEAKPRP | -0.0276
RRIRGRPPRLPRPRPRPDDVPRP | 0.966
RRIRPRPPRLPRPRPRPSLDPRP | -0.0512
RRIRERPPRLPRPRPRPAYRPRP | -0.429
RRIRYRPPRLPRPRPRPTCMPRP | -0.156
RRIRWRPPRLPRPRPRPFEDPRP | 0.104
RRIRTRPPRLPRPRPRPSPGPRP | 0.103
RRIRPRPPRLPRPRPRPMFGPRP | -0.253
RRIRERPPRLPRPRPRPHFYPRP | -0.0121
RRIRRRPPRLPRPRPRPTSTPRP | 0.158
RRIRKRPPRLPRPRPRPEIMPRP | 1.31
RRIRMRPPRLPRPRPRPDKVPRP | 0.359
RRIRVRPPRLPRPRPRPFPLPRP | -0.566
RRIRWRPPRLPRPRPRPVGKPRP | 0.107
RRIRCRPPRLPRPRPRPMVDPRP | 0.02
RRIRERPPRLPRPRPRPKYEPRP | -0.303
RRIRHRPPRLPRPRPRPCKMPRP | -0.134
RRIRFRPPRLPRPRPRPDHHPRP | -0.452
RRIRRRPPRLPRPRPRPINVPRP | -0.326
RRIRYRPPRLPRPRPRPTMHPRP | -0.484
RRIRERPPRLPRPRPRPNRSPRP | -0.0779
RRIRRRPPRLPRPRPRPHCRPRP | 0.103
RRIRARPPRLPRPRPRPLQIPRP | 0.0194
RRIRGRPPRLPRPRPRPNWCPRP | -0.0123
RRIRDRPPRLPRPRPRPHPKPRP | -0.149

Sequence | shrunken log2 fold change
RRIRNRPPRLPRPRPRPIMEPRP | -0.139
RRIRSRPPRLPRPRPRPQPLPRP | 0.256
RRIRMRPPRLPRPRPRPYIEPRP | -0.201
RRIRRRPPRLPRPRPRPSYMPRP | -0.257
RRIRNRPPRLPRPRPRPVEKPRP | 0.143
RRIRYRPPRLPRPRPRPCSCPRP | -0.155
RRIRKRPPRLPRPRPRPYTEPRP | -0.295
RRIRERPPRLPRPRPRPPCDPRP | -0.187
RRIRPRPPRLPRPRPRPIFRPRP | -0.0135
RRIRSRPPRLPRPRPRPLMKPRP | 0.0556
RRIRLRPPRLPRPRPRPPWNPRP | 0.939
RRIRTRPPRLPRPRPRPHMRPRP | 0.161
RRIRWRPPRLPRPRPRPAWGPRP | 0.477
RRIRMRPPRLPRPRPRPMVFPRP | 0.0369
RRIRIRPPRLPRPRPRPCLMPRP | -0.601
RRIRSRPPRLPRPRPRPDGTPRP | -0.199
RRIRWRPPRLPRPRPRPYQLPRP | -0.26
RRIRQRPPRLPRPRPRPIQCPRP | 0.0238
RRIRRRPPRLPRPRPRPMRIPRP | 0.0269
RRIRTRPPRLPRPRPRPVDPPRP | -0.175
RRIRDRPPRLPRPRPRPVMWPRP | 0.783
RRIRARPPRLPRPRPRPHWWPRP | 0.5
RRIRDRPPRLPRPRPRPMCNPRP | -0.0221
RRIRMRPPRLPRPRPRPYEGPRP | -0.13
RRIRQRPPRLPRPRPRPKPHPRP | 0.167

Sequence | shrunken log2 fold change
RRIRMRPPRLPRPRPRPGHRPRP | 1.35
RRIRHRPPRLPRPRPRPCNNPRP | -0.188
RRIRIRPPRLPRPRPRPNSGPRP | -0.177
RRIRYRPPRLPRPRPRPDRQPRP | -0.0345
RRIRSRPPRLPRPRPRPRWCPRP | 0.051
RRIRKRPPRLPRPRPRPYWSPRP | -0.153
RRIRCRPPRLPRPRPRPSFWPRP | -0.0552
RRIRHRPPRLPRPRPRPNWRPRP | 0.0926
RRIRPRPPRLPRPRPRPYWHPRP | -0.405
RRIRNRPPRLPRPRPRPLLVPRP | -0.199
RRIRIRPPRLPRPRPRPFQLPRP | 0.0333
RRIRIRPPRLPRPRPRPEKAPRP | -0.0795
RRIRARPPRLPRPRPRPTAEPRP | 1.3
RRIRWRPPRLPRPRPRPEEHPRP | 0.23
RRIRDRPPRLPRPRPRPWISPRP | -0.00776
RRIRYRPPRLPRPRPRPCWVPRP | -0.158
RRIRNRPPRLPRPRPRPASAPRP | 0.0499
RRIRRRPPRLPRPRPRPSWAPRP | 0.157
RRIRMRPPRLPRPRPRPYFMPRP | -0.898
RRIRHRPPRLPRPRPRPSNTPRP | -0.278
RRIRTRPPRLPRPRPRPLLSPRP | 0.0198
RRIRTRPPRLPRPRPRPSTCPRP | -0.175
RRIRERPPRLPRPRPRPTWAPRP | 0.115
RRIRYRPPRLPRPRPRPAFCPRP | -0.1
RRIRLRPPRLPRPRPRPYYTPRP | -0.76
